According to patent US20090047703A1:

Molecular target: HERG-1b (human) (UniProt Q12809)
Assay: cell-based or functional assay

Work on HERG-1a N-Terminal Domain fused to eCFP yielded a deactivation kinetics, two-electrode voltage clamp in Xenopus oocytes of 10 fold.
